Numbered stars: 1 amine (or outer) side, 2 acyl side, 3 side chain; on linkers, the order of the positions; unused ones are H or OH. Square brackets hold non-standard residues; d marks the D form. Side chains are listed from the residue outwards. * marks the point of attachment. γGlu = O=C(O)[C@H](CCC(=O)[*:2])N[*:1]; Palmitoyl = CCCCCCCCCCCCCCCC(=O)*; Aib = CC(C)(N)C(=O)O
T1: endogenous GLP-1 receptor of a murine insulinoma cell line (murine, UniProt O35659 22-463)
T1 sequence (looked up): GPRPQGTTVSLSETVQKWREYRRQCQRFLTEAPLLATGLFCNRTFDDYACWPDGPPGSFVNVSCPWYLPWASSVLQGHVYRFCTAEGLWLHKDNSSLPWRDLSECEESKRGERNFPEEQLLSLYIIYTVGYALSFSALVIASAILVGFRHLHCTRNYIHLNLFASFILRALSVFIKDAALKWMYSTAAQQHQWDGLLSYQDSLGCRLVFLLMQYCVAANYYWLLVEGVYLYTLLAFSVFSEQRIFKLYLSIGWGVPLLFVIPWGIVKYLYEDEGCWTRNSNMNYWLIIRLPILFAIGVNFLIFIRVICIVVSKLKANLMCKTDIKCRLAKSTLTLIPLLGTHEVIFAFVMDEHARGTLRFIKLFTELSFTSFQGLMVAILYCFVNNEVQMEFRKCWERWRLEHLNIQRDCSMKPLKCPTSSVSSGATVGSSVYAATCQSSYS

B1: Compound 21 (peptide)
peptide: H-H[Aib]QGTFTSDYSKYLESK([γGlu-Palmitoyl])AAEDFIEWLESA-NH2
SMILES: CCCCCCCCCCCCCCCC(=O)N[C@@H](CCC(=O)NCCCC[C@H](NC(=O)[C@H](CO)NC(=O)[C@H](CCC(=O)O)NC(=O)[C@H](CC(C)C)NC(=O)[C@H](Cc1ccc(O)cc1)NC(=O)[C@H](CCCCN)NC(=O)[C@H](CO)NC(=O)[C@H](Cc1ccc(O)cc1)NC(=O)[C@H](CC(=O)O)NC(=O)[C@H](CO)NC(=O)[C@@H](NC(=O)[C@H](Cc1ccccc1)NC(=O)[C@@H](NC(=O)CNC(=O)[C@H](CCC(N)=O)NC(=O)C(C)(C)NC(=O)[C@@H](N)Cc1c[nH]cn1)[C@@H](C)O)[C@@H](C)O)C(=O)N[C@@H](C)C(=O)N[C@@H](C)C(=O)N[C@@H](CCC(=O)O)C(=O)N[C@@H](CC(=O)O)C(=O)N[C@@H](Cc1ccccc1)C(=O)N[C@H](C(=O)N[C@@H](CCC(=O)O)C(=O)N[C@@H](Cc1c[nH]c2ccccc12)C(=O)N[C@@H](CC(C)C)C(=O)N[C@@H](CCC(=O)O)C(=O)N[C@@H](CO)C(=O)N[C@@H](C)C(N)=O)[C@@H](C)CC)C(=O)O
B2: Compound 23 (peptide)
peptide: H-H[Aib]QGTFTSDYSKYLESK([γGlu-Palmitoyl])AAHDFVEWLESA-NH2
SMILES: CCCCCCCCCCCCCCCC(=O)N[C@@H](CCC(=O)NCCCC[C@H](NC(=O)[C@H](CO)NC(=O)[C@H](CCC(=O)O)NC(=O)[C@H](CC(C)C)NC(=O)[C@H](Cc1ccc(O)cc1)NC(=O)[C@H](CCCCN)NC(=O)[C@H](CO)NC(=O)[C@H](Cc1ccc(O)cc1)NC(=O)[C@H](CC(=O)O)NC(=O)[C@H](CO)NC(=O)[C@@H](NC(=O)[C@H](Cc1ccccc1)NC(=O)[C@@H](NC(=O)CNC(=O)[C@H](CCC(N)=O)NC(=O)C(C)(C)NC(=O)[C@@H](N)Cc1c[nH]cn1)[C@@H](C)O)[C@@H](C)O)C(=O)N[C@@H](C)C(=O)N[C@@H](C)C(=O)N[C@@H](Cc1c[nH]cn1)C(=O)N[C@@H](CC(=O)O)C(=O)N[C@@H](Cc1ccccc1)C(=O)N[C@H](C(=O)N[C@@H](CCC(=O)O)C(=O)N[C@@H](Cc1c[nH]c2ccccc12)C(=O)N[C@@H](CC(C)C)C(=O)N[C@@H](CCC(=O)O)C(=O)N[C@@H](CO)C(=O)N[C@@H](C)C(N)=O)C(C)C)C(=O)O
B3: Compound 24 (peptide)
peptide: H-H[Aib]QGTFTSDYSKYLESK([γGlu-Palmitoyl])AAEDFVEWLESA-NH2
SMILES: CCCCCCCCCCCCCCCC(=O)N[C@@H](CCC(=O)NCCCC[C@H](NC(=O)[C@H](CO)NC(=O)[C@H](CCC(=O)O)NC(=O)[C@H](CC(C)C)NC(=O)[C@H](Cc1ccc(O)cc1)NC(=O)[C@H](CCCCN)NC(=O)[C@H](CO)NC(=O)[C@H](Cc1ccc(O)cc1)NC(=O)[C@H](CC(=O)O)NC(=O)[C@H](CO)NC(=O)[C@@H](NC(=O)[C@H](Cc1ccccc1)NC(=O)[C@@H](NC(=O)CNC(=O)[C@H](CCC(N)=O)NC(=O)C(C)(C)NC(=O)[C@@H](N)Cc1c[nH]cn1)[C@@H](C)O)[C@@H](C)O)C(=O)N[C@@H](C)C(=O)N[C@@H](C)C(=O)N[C@@H](CCC(=O)O)C(=O)N[C@@H](CC(=O)O)C(=O)N[C@@H](Cc1ccccc1)C(=O)N[C@H](C(=O)N[C@@H](CCC(=O)O)C(=O)N[C@@H](Cc1c[nH]c2ccccc12)C(=O)N[C@@H](CC(C)C)C(=O)N[C@@H](CCC(=O)O)C(=O)N[C@@H](CO)C(=O)N[C@@H](C)C(N)=O)C(C)C)C(=O)O
B4: Compound 22 (peptide)
peptide: H-HSQGTFTSDYSKYLEEK([γGlu-Palmitoyl])AAKDFIEWLESA-NH2
SMILES: CCCCCCCCCCCCCCCC(=O)N[C@@H](CCC(=O)NCCCC[C@H](NC(=O)[C@H](CCC(=O)O)NC(=O)[C@H](CCC(=O)O)NC(=O)[C@H](CC(C)C)NC(=O)[C@H](Cc1ccc(O)cc1)NC(=O)[C@H](CCCCN)NC(=O)[C@H](CO)NC(=O)[C@H](Cc1ccc(O)cc1)NC(=O)[C@H](CC(=O)O)NC(=O)[C@H](CO)NC(=O)[C@@H](NC(=O)[C@H](Cc1ccccc1)NC(=O)[C@@H](NC(=O)CNC(=O)[C@H](CCC(N)=O)NC(=O)[C@H](CO)NC(=O)[C@@H](N)Cc1c[nH]cn1)[C@@H](C)O)[C@@H](C)O)C(=O)N[C@@H](C)C(=O)N[C@@H](C)C(=O)N[C@@H](CCCCN)C(=O)N[C@@H](CC(=O)O)C(=O)N[C@@H](Cc1ccccc1)C(=O)N[C@H](C(=O)N[C@@H](CCC(=O)O)C(=O)N[C@@H](Cc1c[nH]c2ccccc12)C(=O)N[C@@H](CC(C)C)C(=O)N[C@@H](CCC(=O)O)C(=O)N[C@@H](CO)C(=O)N[C@@H](C)C(N)=O)[C@@H](C)CC)C(=O)O
B5: Compound 19 (peptide)
peptide: H-H[Aib]HGTFTSDYSKYLEEK([γGlu-Palmitoyl])AAHEFVEWLESA-NH2
SMILES: CCCCCCCCCCCCCCCC(=O)N[C@@H](CCC(=O)NCCCC[C@H](NC(=O)[C@H](CCC(=O)O)NC(=O)[C@H](CCC(=O)O)NC(=O)[C@H](CC(C)C)NC(=O)[C@H](Cc1ccc(O)cc1)NC(=O)[C@H](CCCCN)NC(=O)[C@H](CO)NC(=O)[C@H](Cc1ccc(O)cc1)NC(=O)[C@H](CC(=O)O)NC(=O)[C@H](CO)NC(=O)[C@@H](NC(=O)[C@H](Cc1ccccc1)NC(=O)[C@@H](NC(=O)CNC(=O)[C@H](Cc1c[nH]cn1)NC(=O)C(C)(C)NC(=O)[C@@H](N)Cc1c[nH]cn1)[C@@H](C)O)[C@@H](C)O)C(=O)N[C@@H](C)C(=O)N[C@@H](C)C(=O)N[C@@H](Cc1c[nH]cn1)C(=O)N[C@@H](CCC(=O)O)C(=O)N[C@@H](Cc1ccccc1)C(=O)N[C@H](C(=O)N[C@@H](CCC(=O)O)C(=O)N[C@@H](Cc1c[nH]c2ccccc12)C(=O)N[C@@H](CC(C)C)C(=O)N[C@@H](CCC(=O)O)C(=O)N[C@@H](CO)C(=O)N[C@@H](C)C(N)=O)C(C)C)C(=O)O

Key:
Experiment in all cases: cell-based or functional assay
[1] = molecular target: human glucagon receptor (Glucagon-R) (human, UniProt P47871 26-477)
[2] = molecular target: human glucagon-like peptide 1 receptor (GLP-1R) (human, UniProt P43220 24-463)
[3] = molecular target: T1, endogenous GLP-1 receptor of a murine …
[4] = molecular target: endogenous glucagon receptor of primary rat hepatocytes (rat, UniProt P30082 27-485)
Chain of endogenous glucagon receptor of primary rat hepatocytes (P30082 27-485): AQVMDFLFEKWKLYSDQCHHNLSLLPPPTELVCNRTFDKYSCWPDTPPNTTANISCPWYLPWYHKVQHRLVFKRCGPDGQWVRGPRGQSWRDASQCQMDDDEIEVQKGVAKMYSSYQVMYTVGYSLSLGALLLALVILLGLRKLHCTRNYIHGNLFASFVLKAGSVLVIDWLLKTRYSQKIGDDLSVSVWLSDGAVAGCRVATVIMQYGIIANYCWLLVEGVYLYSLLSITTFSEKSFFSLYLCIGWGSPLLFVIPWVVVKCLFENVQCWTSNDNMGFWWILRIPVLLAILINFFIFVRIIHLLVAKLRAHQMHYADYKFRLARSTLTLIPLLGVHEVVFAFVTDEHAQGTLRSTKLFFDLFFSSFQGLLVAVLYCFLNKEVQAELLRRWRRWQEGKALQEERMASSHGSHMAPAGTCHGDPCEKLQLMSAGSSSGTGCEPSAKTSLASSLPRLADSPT

Chain of human glucagon receptor (Glucagon-R) (P47871 26-477): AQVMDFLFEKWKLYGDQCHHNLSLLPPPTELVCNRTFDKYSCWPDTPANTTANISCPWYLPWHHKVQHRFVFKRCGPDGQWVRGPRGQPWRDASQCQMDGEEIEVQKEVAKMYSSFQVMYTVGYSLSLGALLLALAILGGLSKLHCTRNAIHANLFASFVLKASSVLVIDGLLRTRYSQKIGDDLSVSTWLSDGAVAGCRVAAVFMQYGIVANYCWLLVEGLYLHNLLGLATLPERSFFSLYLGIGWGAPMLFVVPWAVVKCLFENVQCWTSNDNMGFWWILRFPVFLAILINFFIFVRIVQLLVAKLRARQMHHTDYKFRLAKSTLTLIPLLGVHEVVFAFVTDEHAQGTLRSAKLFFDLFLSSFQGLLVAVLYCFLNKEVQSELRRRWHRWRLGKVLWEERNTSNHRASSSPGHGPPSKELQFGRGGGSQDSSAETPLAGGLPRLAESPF

Row | Binder | EC50 hGCGR CHO-K1 [nM] (cAMP) [1] | EC50 hGLP-1R CHO-K1 [nM] (cAMP) [2] | Ratio GLP-1/Glucagon (EC50 hGLP-1R / EC50 hGCGR) [2] [ratio] | EC50 GLP-1R (murine insulinoma cells) [nM] (cAMP) [3] | EC50 GLP-1R Rat hepat. [nM] (inhibition of glycogen synthesis) [4]
1 | B1 | 1.32 | 0.12 | 0.09 | 0.3 | 3.4
2 | B2 | 0.25 | 0.13 | 0.52 | 0.31 | 1.32
3 | B3 | 0.92 | 0.11 | 0.12 | 0.33 | 6.15
4 | HXQGTFTSDYSKYLEEXAAKDFIEWLESA (Aib at position 2; Lys 17 K(Hexadecanoyl-isoGlu); C-terminal amide (-NH2)) [Compound 20] | 0.68 | 0.23 | 0.34 | 0.27 | 0.39
5 | B4 | 0.1 | 0.24 | 2.4 | 0.35 | 0.28
6 | B5 | 0.08 | 0.27 | 3.38 | 0.33 | 0.06
